Test results from PMC11934185.

Experiments:
Experiment in all cases: LC-MS of Fabs digested from co-expressed IgG
[1] = target: panitumumab heavy chain, WT CH1, hole CH3 (human)
[2] = target: ustekinumab heavy chain, CH1 design 1039, knob CH3 (human)
[3] = target: ustekinumab heavy chain, WT CH1, knob CH3 (human)
[4] = target: panitumumab heavy chain, CH1 design 1039, hole CH3 (human)
[5] = target: panitumumab heavy chain, CH1 design 1443, hole CH3 (human)
[6] = target: panitumumab heavy chain, CH1 design 2529, hole CH3 (human)
[7] = target: panitumumab heavy chain, CH1 design 367, hole CH3 (human)
[8] = target: panitumumab heavy chain, CH1 design 767, hole CH3 (human)
[9] = target: panitumumab heavy chain, CH1 of designs 1148 and 454 (L145S), hole CH3 (human)
[10] = target: panitumumab heavy chain, CH1 of designs 1328 and 838 (G166K, T187K), hole CH3 (human)

% of observed Fabs (co-expressed: m3) [1] [%] | % of observed Fabs (co-expressed: m38) [1] [%] | % of observed Fabs (co-expressed: m40) [2] [%] | % of observed Fabs (co-expressed: m3) [3] [%] | % of observed Fabs (co-expressed: m3) [4] [%] | % of observed Fabs (co-expressed: m3) [5] [%] | % of observed Fabs (co-expressed: m11) [6] [%] | % of observed Fabs (co-expressed: m13) [7] [%] | % of observed Fabs (co-expressed: m25) [8] [%] | % of observed Fabs (co-expressed: m34) [9] [%] | % of observed Fabs (co-expressed: m17) [10] [%] | % of observed Fabs (co-expressed: m7) [3] [%] | % of observed Fabs (co-expressed: m17) [3] [%] | % of observed Fabs (co-expressed: m21) [3] [%] | % of observed Fabs (co-expressed: m23) [3] [%] | % of observed Fabs (co-expressed: m25) [3] [%] | % of observed Fabs (co-expressed: m27) [3] [%] | % of observed Fabs (co-expressed: m30) [3] [%] | % of observed Fabs (co-expressed: m32) [3] [%] | % of observed Fabs (co-expressed: m36) [3] [%] | Substance
41 | 54 | 18 | 21 | – | – | – | – | – | – | – | – | – | – | – | – | – | – | – | – | panitumumab light chain, WT Cκ
8 | – | – | – | 10 | 8 | 18 | 8 | 10 | 10 | 6 | 50 | 50 | 41 | 45 | 41 | 40 | 40 | 41 | 45 | ustekinumab light chain, WT Cκ
